From patent US11279747 (UNIVERSITAT ZURICH, dated 2022)

Assays:
Test in all cases: ELISA, receptor coated at 10 µg/mL, anti-human Fc-HRP
A30-β2m-Fc = molecular target: T1, A30-β2m-Fc (human, UniProt P61769 21-119)
T1 construct: HLA-Fc heavy chain with beta2m, made in CHO cells; also called HLA-β2m-Fc; control MHC-Ia heterotrimer; not shown: human IgG4 Fc (human IgG4-Fc vector, InvivoGen)
Description: (§1) Competition ELISA assays were performed using Maxisorp (Nunc, Switzerland) 96 well plates coated with 10 μg/mL of selected leukocyte receptors (human KIR3DL1, human KIR3DL2, human KIR3DL3, human LILRB1, human LILRB2, human PTPRJ and mouse Pirb) purchased from Creative Biomart. Receptors were incubated for ON 4° C., blocked with 5% milk powder-TBS 2 hrs. HLA_2-Fc selected constructs (A25_2-Fc, A30_2-Fc, B2705_2-Fc, B53_2-Fc, B57_2-Fc, B58_2-Fc, C08_2-F, and C12_2-Fc) and their controls (A25-β2m-Fc, A30-β2m-Fc, B2705-β2m-Fc, B53-β2m-Fc, B57-β2m-Fc, B58-β2m-Fc, C08-β2m-Fc and C12-β2m-Fc) and isotype IgG4 were added at 10 μg/mL for 2 hrs RT. HRP-conjugated antibodies against human Fc were used as detectors.

B27-β2m-Fc = molecular target: T2, B27-β2m-Fc (human, UniProt P61769 21-119)
T2 construct: HLA-Fc heavy chain with beta2m, made in CHO cells; also called B2705-β2m-Fc; HLA-β2m-Fc; not shown: human IgG4 Fc (human IgG4-Fc vector, InvivoGen)
T2 sequence (P61769 21-119 limits assumed): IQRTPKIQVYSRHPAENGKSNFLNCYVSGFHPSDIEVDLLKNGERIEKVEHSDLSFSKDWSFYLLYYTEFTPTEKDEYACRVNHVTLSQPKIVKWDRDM
Description: as §1

B53-β2m-Fc = molecular target: T3, B53-β2m-Fc (human, UniProt P61769 21-119, limits assumed)
T3 construct: HLA-Fc heavy chain with beta2m, made in CHO cells; also called HLA-β2m-Fc; control MHC-Ia heterotrimer; not shown: human IgG4 Fc (human IgG4-Fc vector, InvivoGen)
T3 sequence (P61769 21-119 limits assumed): as above
Description: as §1

B57-β2m-Fc = molecular target: T4, B57-β2m-Fc (human, UniProt P61769 21-119, limits assumed)
T4 construct: HLA-Fc heavy chain with beta2m, made in CHO cells; also called HLA-β2m-Fc; control MHC-Ia heterotrimer; not shown: human IgG4 Fc (human IgG4-Fc vector, InvivoGen)
T4 sequence (P61769 21-119 limits assumed): as above
Description: as §1

B58-β2m-Fc = molecular target: T5, B58-β2m-Fc (human, UniProt P61769 21-119, limits assumed)
T5 construct: HLA-Fc heavy chain with beta2m, made in CHO cells; also called HLA-β2m-Fc; control MHC-Ia heterotrimer; not shown: human IgG4 Fc (human IgG4-Fc vector, InvivoGen)
T5 sequence (P61769 21-119 limits assumed): as above
Description: as §1

A25-β2m-Fc = molecular target: T6, A25-β2m-Fc (human, UniProt P61769 21-119, limits assumed)
T6 construct: HLA-Fc heavy chain with beta2m, made in CHO cells; also called HLA-β2m-Fc; control MHC-Ia heterotrimer; not shown: human IgG4 Fc (human IgG4-Fc vector, InvivoGen)
T6 sequence (P61769 21-119 limits assumed): as above
Description: as §1

Measured: binding result

T1 sequence (P61769 21-119 limits assumed): as above

B1: human KIR3DL2 (receptor, UniProt P43630 22-340, looked up)
chain: LMGGQDKPFLSARPSTVVPRGGHVALQCHYRRGFNNFMLYKEDRSHVPIFHGRIFQESFIMGPVTPAHAGTYRCRGSRPHSLTGWSAPSNPLVIMVTGNHRKPSLLAHPGPLLKSGETVILQCWSDVMFEHFFLHREGISEDPSRLVGQIHDGVSKANFSIGPLMPVLAGTYRCYGSVPHSPYQLSAPSDPLDIVITGLYEKPSLSAQPGPTVQAGENVTLSCSSWSSYDIYHLSREGEAHERRLRAVPKVNRTFQADFPLGPATHGGTYRCFGSFRALPCVWSNSSDPLLVSVTGNPSSSWPSPTEPSSKSGICRHLH
notes: Bought protein coated on the ELISA plate; also called hu KIR3DL2
no binding (tested: 10 µg/mL): all assays above
